This note sets out measurements from article PMC6894070, “The Plasmodium falciparum Hsp70-x chaperone assists the heat stress response of the malaria parasite” (The FASEB Journal, 2019).

The target in test [1] is Plasmodium falciparum Hsp70-x (PfHsp70-x), full-length construct aa 25-679 (P. falciparum, UniProt K7NTP5 25-679). The test is described as follows: cell-based or functional assay.
For test [2], the target named is T1, human heat shock cognate protein 70 (Hsc70), full length (human, UniProt P11142 1-646).
T1 construct: also called HSPA8; heat shock protein family A (hspa) member 8
T1 sequence (P11142 whole entry): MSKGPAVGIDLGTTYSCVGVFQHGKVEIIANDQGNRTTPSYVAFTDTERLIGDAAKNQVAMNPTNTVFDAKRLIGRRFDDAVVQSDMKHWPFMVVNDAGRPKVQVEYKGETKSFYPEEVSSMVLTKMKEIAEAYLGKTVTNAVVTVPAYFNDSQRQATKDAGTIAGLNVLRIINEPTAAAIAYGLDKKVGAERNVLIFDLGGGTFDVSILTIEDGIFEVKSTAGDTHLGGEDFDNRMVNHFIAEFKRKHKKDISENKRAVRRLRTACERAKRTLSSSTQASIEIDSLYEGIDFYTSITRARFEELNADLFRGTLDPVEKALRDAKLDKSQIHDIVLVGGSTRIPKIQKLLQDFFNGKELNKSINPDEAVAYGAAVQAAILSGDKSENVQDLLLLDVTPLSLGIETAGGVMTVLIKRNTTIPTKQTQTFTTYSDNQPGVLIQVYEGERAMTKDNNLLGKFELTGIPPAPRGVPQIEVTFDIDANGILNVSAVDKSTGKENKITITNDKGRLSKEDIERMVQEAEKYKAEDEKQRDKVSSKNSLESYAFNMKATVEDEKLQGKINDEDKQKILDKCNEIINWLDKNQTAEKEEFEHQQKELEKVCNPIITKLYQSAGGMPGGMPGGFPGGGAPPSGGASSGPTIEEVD
The test is described as follows: NMR titration; 15N-labelled PFA0660wJ titrated with unlabelled chaperone; HSQC peak intensity changes; 25°C; 20 mM sodium phosphate pH 7.4, 150 mM NaCl, 2 mM DTT. Conditions: both partners purified.

B1: J-domain of P. falciparum Hsp40 cochaperone PFA0660w (PFA0660wJ), aa 81-148 (domain or fragment, UniProt Q8I2E1 81-148, looked up)
chain: MDYYTLLGVDKGCSEDDLRRAYLKLAMKWHPDKHVNKGSKVEAEEKFKNICEAYSVLSDNEKRVKYDL
notes: PFA0660w, P. falciparum, pf3d7_0113700, UniProt Q8I2E1, J-domain aa 81-148; codon-optimized synthetic DNA; 15N-labelled (or 13C,15N-labelled) in the NMR assays; unlabelled in the ATP hydrolysis assays; also called PFA0660w J-domain; not shown: His6, N-terminal, cleaved
Take B1: in test [1], the “fold change in ATP hydrolysis activity of PfHsp70-x upon titration of the J-domain (5 μM chaperone)” value is about 2 fold. Further, the binding result in test [2] is listed as “binds”.
